Substitutions are numbered along the chain they refer to.
T1: cynoSIRPα (EGM_02252), Extracellular Domain + His-Tag (cynomolgus monkey)
T1 construct: also called CySIRPα EGM_02252; not shown: His-Tag
T1 chain: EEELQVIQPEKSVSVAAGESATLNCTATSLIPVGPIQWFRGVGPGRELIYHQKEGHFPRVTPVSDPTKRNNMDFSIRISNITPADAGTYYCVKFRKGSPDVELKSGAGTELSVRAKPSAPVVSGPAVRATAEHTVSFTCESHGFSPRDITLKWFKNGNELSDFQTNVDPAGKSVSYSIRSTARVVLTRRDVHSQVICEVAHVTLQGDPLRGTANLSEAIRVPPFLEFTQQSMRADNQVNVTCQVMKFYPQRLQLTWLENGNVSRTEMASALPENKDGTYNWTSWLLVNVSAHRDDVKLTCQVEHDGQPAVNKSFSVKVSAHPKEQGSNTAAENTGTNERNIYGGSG

T2: cynoSIRPα (XP_015313155), Extracellular Domain + His-Tag (cynomolgus monkey)
T2 construct: also called CySIRPα XP_015313155; not shown: His-Tag
T2 chain: T1 chain with E19D, A27V, T28S, V42A, H51N, Q52L, F227V, M245T

T3: cynoSIRPα (NP_001271679), Extracellular Domain + His-Tag (cynomolgus monkey)
T3 construct: also called CySIRPα NP_001271679; not shown: His-Tag
T3 chain: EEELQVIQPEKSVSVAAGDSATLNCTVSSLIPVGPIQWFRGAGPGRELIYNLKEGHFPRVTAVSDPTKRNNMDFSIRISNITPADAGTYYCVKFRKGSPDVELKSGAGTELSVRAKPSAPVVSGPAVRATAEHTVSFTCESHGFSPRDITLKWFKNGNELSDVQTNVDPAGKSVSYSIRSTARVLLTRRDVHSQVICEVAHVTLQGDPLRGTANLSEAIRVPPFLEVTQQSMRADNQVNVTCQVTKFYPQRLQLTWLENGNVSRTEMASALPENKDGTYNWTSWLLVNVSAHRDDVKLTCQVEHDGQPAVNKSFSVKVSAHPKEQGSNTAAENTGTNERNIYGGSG

B1: Antibody E11 (antibody, human IgG1, kappa, L234A L235A, V domains shown)
VH: QVQLQESGPGLVRPSETLSLTCTVSGGSIRNYYWSWIRQPPGKGLEWMGFIYDNGRTFYNPSLKSRVTISLDMSMNQFSLKMTSVTAADTAVYYCARVRAYSGIGLDGTDVWGQGTTVTVSS
VL: DIVMTQSPLSLPVTPGEPASISCKSSQSLLYSNGYAYLDWYLQRPGQSPQLLIYLGSNRASGVPDRFSGSGSGTDFTLKISRVEAEDVGVYYCMQALQTPLTFGGGTKVEIKR
B2: Antibody E14 (antibody, human IgG1, kappa, L234A L235A, V domains shown)
VH: B1 VH with M48I, D53Y, M73K, M75K
VL: B1 VL with G34A, A36N
B3: Antibody E21 (antibody, human IgG1, kappa, L234A L235A, V domains shown)
VH: B1 VH with M48I, D53Y, N54T, M75K
VL: B1 VL with G34A, A36N
B4: Antibody E16 (antibody, human IgG1, kappa, L234A L235A, V domains shown)
VH: B1 VH with M48I, D53Y, M73T, M75K
VL: B1 VL with G34A, A36N
B5: Antibody E17 (antibody, human IgG1, kappa, L234A L235A, V domains shown)
VH: B1 VH
VL: B1 VL with G34A, A36N
B6: Antibody E15 (antibody, human IgG1, kappa, L234A L235A, V domains shown)
VH: B1 VH with M48I, D53Y, N54T, M75I
VL: B1 VL
B7: Antibody E19 (antibody, human IgG1, kappa, L234A L235A, V domains shown)
VH: B1 VH with M48I, D53Y, N54T, M75K
VL: B1 VL with L55Q, Y91F
B8: Antibody E12 (antibody, human IgG1, kappa, L234A L235A, V domains shown)
VH: B1 VH with M48I, D53Y, M75K
VL: B1 VL with G34A, A36N
B9: Antibody E13 (antibody, human IgG1, kappa, L234A L235A, V domains shown)
VH: B1 VH with M48I, D53Y, N54T, M75I
VL: B1 VL with L55Q, Y91F
B10: Antibody E20 (antibody, human IgG1, kappa, L234A L235A, V domains shown)
VH: B1 VH with M48I, D53Y, N54T, M75I
VL: B1 VL with G34A, A36N
B11: Antibody E18 (antibody, human IgG1, kappa, L234A L235A, V domains shown)
VH: B1 VH with M48I, D53Y, N54T, M75K
VL: B1 VL

Biological target: T1, cynoSIRPα (EGM_02252), Extracellular …
Assay: SPR, antibody captured on Protein A/G, ECD-His analyte
Protocol: The binding kinetics of anti-SIRPα antibodies to various SIRPα analytes are determined by surface plasmon resonance (SPR) using a Biacore 8K+(Cytiva). 1×HBS-EP+(Cytiva) is used as running buffer and for all the dilutions unless stated otherwise. The Series S CM5 sensorchip is activated with a 1:1 mixture of 0.1 M NHS (N-hydroxysuccinimide) and 0.4 M EDC (1-Ethyl-3-(3-dimethylaminopropyl) carbodiimide hydrochloride) for 420 seconds at a flow rate of 10 μl/min and immobilized with Protein A/G (Thermo Scientific, 10 μg/ml in 10 mM acetate pH 4.5) for 420 seconds at a flowrate of 10 μl/min resulting in approximately 3000 RU of Protein A/G on the surface. The sensorchip is then deactivated with 1 M ethanolamine HCl pH 8.5 for 420 seconds at a flowrate of 10 μl/min.
Antibodies (approximately 1 ug/ml) are captured on the Protein A/G surface for 60 seconds at a flowrate of 10 μl/min resulting in capture levels of approximately 240 RU. Dilutions of each SIRP protein (Extracellular Domain+His-Tag, with the concentrations as indicated) are injected as analytes over the captured antibody for 300 seconds of association at a flowrate of 30 μl/min, followed by a dissociation for 600 seconds.

| binding result | Binder |
| --- | --- |
| no binding (tested: 1000 nM) | B1 |
| no binding (tested: 1000 nM) | B2 |
| no binding (tested: 1000 nM) | B3 |
| no binding (tested: 1000 nM) | B4 |
| no binding (tested: 1000 nM) | B5 |
| no binding (tested: 1000 nM) | B6 |
| no binding (tested: 1000 nM) | B7 |
| no binding (tested: 1000 nM) | B8 |
| no binding (tested: 1000 nM) | B9 |
| no binding (tested: 1000 nM) | B10 |
| no binding (tested: 1000 nM) | B11 |

Biological target: T4, Human SIRPαV2 (CAA71403.1), Extracellular Domain + His-Tag (human, UniProt P78324 31-373)
T4 construct: also called huSIRPαV2; hSIRPαV2; not shown: His-Tag
T4 sequence (P78324 other isoform, or with tags, fused parts or gaps): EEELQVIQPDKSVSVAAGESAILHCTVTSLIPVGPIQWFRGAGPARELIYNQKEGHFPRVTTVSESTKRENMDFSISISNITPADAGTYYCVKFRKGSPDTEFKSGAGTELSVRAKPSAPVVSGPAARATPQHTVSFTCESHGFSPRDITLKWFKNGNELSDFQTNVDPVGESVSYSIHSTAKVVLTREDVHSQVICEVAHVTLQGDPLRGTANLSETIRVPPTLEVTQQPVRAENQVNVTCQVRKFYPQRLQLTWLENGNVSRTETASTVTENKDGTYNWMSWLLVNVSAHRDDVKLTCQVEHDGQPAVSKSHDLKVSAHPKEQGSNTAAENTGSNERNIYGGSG
Assay: SPR, antibody captured on Protein A/G, ECD-His analyte, 1:1 fit
How it was run: (§1)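 Biacore 8K+ at HBS-EP+, with antibodies (~1 ug/ml) captured on Protein A/G CM5 surface to ~240 RU. SIRPα ECD-His analyte dilutions injected at 30 μl/min for 300 s association, 600 s dissociation.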

| Kd [nM] | koff [s⁻¹] | kon [M⁻¹ s⁻¹] | Binder |
| --- | --- | --- | --- |
| 0.57 | 0.000258 | 453000 | B1 |
| 1.36 | 0.000615 | 453000 | B2 |
| 1.39 | 0.000761 | 549000 | B3 |
| 1.93 | 0.00105 | 547000 | B4 |
| 0.8 | 0.000405 | 508000 | B5 |
| 0.74 | 0.000369 | 501000 | B6 |
| 0.97 | 0.000399 | 411000 | B7 |
| 1.26 | 0.000709 | 562000 | B8 |
| 0.69 | 0.000338 | 490000 | B9 |
| 1.11 | 0.000627 | 563000 | B10 |
| 0.9 | 0.000443 | 493000 | B11 |

Biological target: T5, Human SIRPαV1 (NP_542970.1), Extracellular Domain + His-Tag (human, UniProt P78324 31-373)
T5 construct: also called huSIRPαV1; hSIRPαV1; not shown: His-Tag
T5 sequence (P78324 other isoform, or with tags, fused parts or gaps): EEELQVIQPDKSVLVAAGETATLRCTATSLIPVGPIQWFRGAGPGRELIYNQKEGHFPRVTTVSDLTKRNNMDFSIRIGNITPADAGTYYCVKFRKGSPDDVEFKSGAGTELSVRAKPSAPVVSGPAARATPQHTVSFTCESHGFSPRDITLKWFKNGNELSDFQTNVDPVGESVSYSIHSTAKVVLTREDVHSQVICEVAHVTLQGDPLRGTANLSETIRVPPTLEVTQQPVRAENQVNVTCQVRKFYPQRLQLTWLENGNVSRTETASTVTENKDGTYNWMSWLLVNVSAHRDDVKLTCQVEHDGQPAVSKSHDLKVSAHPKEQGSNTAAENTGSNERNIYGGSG
Assay: as above
How it was run: as §1

| Kd [nM] | koff [s⁻¹] | kon [M⁻¹ s⁻¹] | Binder |
| --- | --- | --- | --- |
| 1.41 | 0.000498 | 352000 | B1 |
| 1.84 | 0.000743 | 403000 | B2 |
| 4.46 | 0.00212 | 476000 | B3 |
| 2.15 | 0.00106 | 490000 | B4 |
| 2.36 | 0.000955 | 405000 | B5 |
| 1.91 | 0.000802 | 421000 | B6 |
| 2.52 | 0.000843 | 334000 | B7 |
| 1.67 | 0.000819 | 490000 | B8 |
| 1.7 | 0.000671 | 394000 | B9 |
| 3.42 | 0.00164 | 480000 | B10 |
| 2.46 | 0.00101 | 410000 | B11 |

Biological target: T2, cynoSIRPα (XP_015313155), Extracellular …
Assay: as above
How it was run: as §1

| Kd [nM] | koff [s⁻¹] | kon [M⁻¹ s⁻¹] | Binder |
| --- | --- | --- | --- |
| 20 | 0.00549 | 275000 | B1 |
| 86.3 | 0.0173 | 200000 | B2 |
| 108 | 0.0245 | 228000 | B3 |
| 48.8 | 0.0147 | 300000 | B4 |
| 43.2 | 0.0126 | 292000 | B5 |
| 46.2 | 0.0113 | 245000 | B6 |
| 44.7 | 0.00687 | 154000 | B7 |
| 42.2 | 0.0125 | 297000 | B8 |
| 37.4 | 0.00711 | 190000 | B9 |
| 104 | 0.0261 | 251000 | B10 |
| 50 | 0.0113 | 226000 | B11 |

Biological target: T3, cynoSIRPα (NP_001271679), Extracellular …
Assay: as above
How it was run: as §1

| Kd [nM] | koff [s⁻¹] | kon [M⁻¹ s⁻¹] | Binder |
| --- | --- | --- | --- |
| 20.3 | 0.00542 | 267000 | B1 |
| 90.7 | 0.0173 | 190000 | B2 |
| 107 | 0.0242 | 225000 | B3 |
| 50 | 0.0158 | 313000 | B4 |
| 44.8 | 0.0126 | 282000 | B5 |
| 49.4 | 0.012 | 243000 | B6 |
| 46.6 | 0.00725 | 156000 | B7 |
| 46.1 | 0.0129 | 279000 | B8 |
| 38.3 | 0.00755 | 197000 | B9 |
| 111 | 0.0278 | 251000 | B10 |
| 52.5 | 0.0118 | 224000 | B11 |

From patent US20230012273A1 (Boehringer Ingelheim, published 2023)
